The series deals with the molecule itself. Briefly: SEC; purified mAOX1; single peak with an approximate molecular mass of 300 kDa; data not shown.

B1: Mouse aldehyde oxidase AOX1 (recombinant, wild-type) (enzyme, UniProt O54754 1-1333, looked up)
chain: MDPIQLLFYVNGQKVVEKNVDPEMMLLPYLRKNLRLTGTKYGCGGGGCGACTVMISRYNPSTKAIRHHPVNACLTPICSLHGTAVTTVEGLGNTRTRLHPIQERIAKCHGTQCGFCTPGMVMSMYALLRNHPEPTLDQLTDALGGNLCRCTGYRPIIDACKTFCKASACCQSKENGVCCLDQEINGLAESQEEDKTSPELFSEEEFLPLDPTQELIFPPELMRIAEKQPPKTRVFYGERVTWISPVTLKELVEAKFKYPQAPIVMGYTSVGPEVKFKGVFHPIIISPDRIEELGVISQARDGLTLGAGLSLDQVKDILADIVQKLPEEKTQTYRALLKHLRTLAGSQIRNMASLGGHIVSRHLDSDLNPLLAVGNCTLNLLSKDGERRIPLSEEFLRKCPEADLKPQEVLVSVNIPWSRKWEFVSAFRQAQRQQNALAIVNSGMRVLFREGGGVIEELSILYGGVGSTIISAKNSCQRLIGRPWNEGMLDTRCRLVLDEVTLAASAPGGKVEFKRTLIISFLFKFYLEVSQGLKREDPGHSPSLAGNHESALDDLHSKHPWRTLTHQNVDPAQLPQDPIGRPIMHLSGIKHATGEAIYCDDMPAVDRELFLTFVTSSRAHAKIVSIDLSEALSLPGVVDIITADHLQEANTFGTETFLATDEVHCVGHLVCAVIADSETRAKQAAKQVKVVYQDLAPLILTIEEAIQHKSFFKSERKLECGNVDEAFKIVDQILEGEIHIGGQEHFYMETQSMLVVPKGEDGEIDIYVSTQFPKYIQDIVAATLKLSANKVMCHVRRVGGAFGGKVGKTSILAAITAFAASKHGRAVRCILERGEDMLITGGRHPYLGKYKAGFMNEGRILALDVEHYCNGGCSLDESLWVIEMGLLKLDNAYKFPNLRCRGWACRTNLPSNTALRGFGFPQAGLVTEACITEVAIKCGLSPEQVRTINMYKHVDTTHYKQEFSAKALSECWRECMAKCSYFERKAAIGKFNAENSWKKRGMAVIPLKFPVGIGSVAMGQAAALVHIYLDGSALVSHGGIEMGQGVHTKMIQVVSRELRMPMSSVHLRGTSTETVPNTNASGGSVVADLNGLAVKDACQTLLKRLEPIISKNPQGTWKDWAQTAFDQSISLSAVGYFRGYESNIDWEKGEGHPFEYFVFGAACSEVEINCLTGDHKNIRTNIVMDVGHSINPALDIGQVEGAFIQGMGLYTIEELSYSPQGTLYSRGPNQYKIPAICDIPTEMHISFLPPSEHSNTLYSSKGLGESGVFLGCSVFFAIHDAVKAARQERGISGPWKLNSPLTPEKIRMACEDKFTKMIPRDEPGSYVPCNIPV
notes: mouse aldehyde oxidase AOX1, cDNA cloned from mouse CD1 liver into the NdeI-SalI sites of pTrcHis (plasmid pSL205); band of 150 kDa on SDS-PAGE; Holds Moco, two [2Fe-2S] clusters and FAD as cofactors; also called mAOX1; mAOX1-WT; source: E. coli TP1000, coexpressed with mMCSF, purified (Ni-NTA, Superose 12, benzamidine sepharose)
As usually defined, the stoichiometry N is a count of units in the complex or per binding partner. In the case of B1, the “stoichiometry N” value was determined as 2.

For the origin of these results see PMC2671166, “Site Directed Mutagenesis of Amino Acid Residues at the Active Site of Mouse Aldehyde Oxidase AOX1” (PLoS ONE, 2009).
